According to the supplement of paper PMC11865577:

Tests used:
Test in all cases: pull-down binding Z-score (relative to library population); higher = stronger binding
Settings in all cases: RNA library: Library-2
[1] = system: TO-3-N3-2 (biotin conjugate)
How it was run: (§1)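 The RNA library, end-labelled with Cy5 or Cy3, was heat-folded in phosphate/NaCl/KCl buffer, and 1 μg was incubated at 25 °C for 60 min with streptavidin beads carrying 100 pmol of biotin-conjugated small molecule. Hot SDS released the bound RNA, which was then hybridised to a DNA barcode microarray for 20 h at 55.5 °C. For scoring binding, signal from beads alone was subtracted, replicate barcoded probes were averaged after discarding the highest and lowest, and each value was turned into a Z-score from the library mean and standard deviation.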

TO-N3 (biotin conjugate) = system: TO-N3 (biotin conjugate)
How it was run: as §1

[2] = system: TO-3-N3 (biotin conjugate)
How it was run: as §1

[3] = system: TO-N3-2 (biotin conjugate)
How it was run: as §1

Row | Sequence | pull-down binding Z-score [1] | pull-down binding Z-score (TO-N3 (biotin conjugate)) | pull-down binding Z-score [2] | pull-down binding Z-score [3]
1 | GGGUACGACUUUGAAAGGGAGGGAUACUCUCUAGUCGGAAUAGACCC [IAV_invivo_NP_5_Motif_16+IAV_invivo_NP_5_Motif_16] | 0.439 | 0.986 | 0.779 | 0.638
2 | CAGAGUCGUAUUUGUCUUAUGGGCACAUGGCUUUG [SHAPE_invivo_SARS-CoV-2_Motif_350] | -0.171 | 0.131 | 0.361 | -0.215
3 | UUAACGUGAGUCUUGUAAAACCUUCUUUUUACGUUUACUCUCGUGUUAA [DMSMaPseq_invitro_SARS-CoV-2_Motif_474] | -0.0657 | -0.275 | -0.223 | -1.02
4 | GGGCUAGAUUCCC [DMSMaPseq_invitro_SARS-CoV-2_Motif_228] | -0.264 | -0.867 | -0.623 | -0.533
5 | GUGUUUAUGAUUACUUAGUUUCUACACAGGAGUUUAGAUAUAUGAAUUCACAGGGACUACUCCCACCCAAGAAUAGCAUAGAUGC | 0.472 | -0.0167 | -0.215 | -0.079
6 | GCCCUGGAAUGAUGAUGGGC [IAV_invivo_PB1_2_Motif_20+IAV_invivo_PB1_2_Motif_20] | 0.012 | 0.138 | 0.0132 | 0.65
7 | CAGACUUUAUGAGUGUCUCUAUAGAAAUAGAGAUGUUGACACAGACUUUGUGAAUGAGUUUUACGCAUAUUUGCGUAAACAUUUCUCAAUGAUGAUACUCUCUG | -0.449 | -1.21 | -0.919 | -1.1
8 | GGUUGGGAGAAGAGCAACAGCC [IAV_invivo_PB2_1_Motif_16+IAV_invivo_PB2_1_Motif_16] | 0.479 | 0.776 | 0.351 | 1.09
9 | AUUUGAACUCUACUAAUGUCACUAUUGCAACCUACUGUACUGGUUCUAUACCUUGUAGUGUUUGUCUUAGUGGUUUAGAU | -0.244 | -1.06 | -0.873 | -0.913
10 | GCACCAUUAUUAUCAGCUGGUAUUUUUGGUGC | -0.502 | -0.921 | -0.619 | -1.18
11 | CCUUGCACCUAAUAUGAUGGUAACAAACAAUACCUUCACACUCAAAGGCGGUGCACCAACAAAGGUUACUUUUGGUGAUGACACUGUGAUAGAAGUGCAAGG [SHAPE_invivo_SARS-CoV-2_Multi_7_ComplexLevel_1] | -0.454 | -0.857 | -0.657 | -0.526
12 | AAUUAUGAAGAUUUACUCAUUCGUAAGUCUAAUCAUAAUU | -0.3 | -0.429 | -0.0299 | -0.858
13 | GGGAUUAUCCU | -0.465 | -0.927 | -0.811 | -0.985
14 | GAGGUGAGCAGGAUACUUACCUG [U1snRNP5ss-16] | -0.182 | 0.0508 | -0.342 | 0.602
15 | GCUAAAUUGUUACAUAAACCUAUUGUUUGGCAUGUUAACAAUGC [SHAPE_invitro_SARS-CoV-2_Motif_124] | -0.265 | -0.96 | -0.783 | -1.24
16 | GCGCUUCAGCGUUCUUCGGAAUGUCGCGC | -0.453 | -0.787 | -0.429 | -0.654
17 | GGUGUUUUAACU | -0.285 | -0.303 | -0.133 | -0.847
18 | GCUGCACAAAAAGC [IAV_invivo_NP_5_Motif_13+IAV_invivo_NP_5_Motif_13] | -0.544 | -1.08 | -0.79 | -0.23
19 | AAAUUACCAUUUCAUCUUUUAAAUGGGAUUU | -0.151 | -0.0633 | 0.204 | -1.21
20 | AUUACUGCAAAAUGGUAUGAAUGGACGUACCAUAUUGGGUAGU [DMSMaPseq_invitro_SARS-CoV-2_Motif_194] | 0.144 | 0.0935 | 0.151 | -0.151
21 | UUAAGGUGUUUACAACAGUAGACAACAUUAA [DMSMaPseq_invitro_SARS-CoV-2_Motif_93] | -0.382 | -1.08 | -1.01 | -1.08
22 | GCUGUAGUGUUACUAAUCCUUAUGACAGC | -0.242 | -0.197 | -0.113 | -0.349

Row | Sequence | pull-down binding Z-score [1] | pull-down binding Z-score (TO-N3 (biotin conjugate)) | pull-down binding Z-score [2] | pull-down binding Z-score [3]
23 | CCGAAUACCAUAAUGAAUCUGGCUUGAAAACCAUUCUUCGUAAGGGUGGUCGCACUAUUGCCUUUGG [DMSMaPseq_invitro_SARS-CoV-2_Multi_5_ComplexLevel_1] | -0.063 | -0.257 | -0.576 | 0.178
24 | UCUGCUCGCAUAGUGUAUACAGCUUGCUCUCAUGCCGCUGUUGAUGCACUAUGUGAGAAGGCAUUAAAAUAUUUGCCUAUAGA | -0.447 | -0.615 | -0.598 | -0.0527
25 | GCGCUGCCAGAAACUGGCUUAGCGC [bulge-UU] | -0.0172 | 0.691 | 0.63 | 0.338
26 | UAUUUCAUAACAGAUGCGCAAACAGGUUCAUCUAAGUGUGUGUGUUCUGUUAUUGAUUUA | -0.188 | -1.16 | -1.06 | -0.209
27 | GUCUGGUAGUCGGAC [IAV_invivo_NA_6_Motif_1+IAV_invivo_NA_6_Motif_1] | -0.235 | -0.173 | -0.00665 | -0.21
28 | UGAUGGUGUUCCAUUUGUAGUUUCAACUGGAUACCACUUCA [DMSMaPseq_invitro_SARS-CoV-2_Motif_261] | -0.236 | -0.387 | -0.0305 | -0.82
29 | ACUAAAAAUGU [SHAPE_invitro_SARS-CoV-2_Motif_381] | -0.343 | -0.167 | 0.184 | -0.642
30 | ACAAUGGCAGACCUCGUCUAUGCUUUAAGGCAUUUUGAUGAAGGUAAUUGU | -0.242 | -0.93 | -0.812 | -1.12
31 | AAGACUCAUCUCUAUGAUGGGUUUU | -0.575 | -1.34 | -0.938 | -1.46
32 | CGGGCUUAUGUUGCUCG | -0.43 | -0.791 | -0.429 | -0.956
33 | GUUUUCUACAAAGAAAAC | -0.524 | -1.09 | -0.676 | -1.75
34 | GAUUAUGUGUACCUUCCUUACCCAGAUCCAUCAAGAAUCCUAGGGGCCGGCUGUUUUGUAGAUGAUAUCGUAAAAACAGAUGGUACACUUAUGAUU [SHAPE_invitro_SARS-CoV-2_Multi_44_ComplexLevel_1] | 0.262 | 0.661 | 0.359 | 0.0805
35 | UACCAGCUGUACUCAACUCAAUUGAGUACAGACACUGGUG [DMSMaPseq_invitro_SARS-CoV-2_Motif_468] | -0.473 | -1.16 | -0.751 | -1.06
36 | GCGCUGCCAGAAACUGGCCAGCGC [bulge-C] | -0.512 | -0.667 | -0.488 | -0.547
37 | CGUGGUAUUCUUGCUAGUUACACUAGCCAUCCUUACUGCG | -0.37 | -1.1 | -0.913 | -0.427
38 | CUGGGAAACUGUUAAAAUUCAGUGGUCCCAG [IAV_invivo_PB2_1_Motif_27+IAV_invivo_PB2_1_Motif_27] | -0.0981 | -0.972 | -0.682 | -0.97
39 | AAGGCUGAUGAAACUCAAGCCUU | -0.269 | -0.413 | -0.506 | -0.106
40 | CCUUGUAGGUUUGUUACAGACACACCUAAAGG | -0.655 | -0.262 | -0.369 | -0.614
41 | GAUCUCUUGUAGAUC | 0.0231 | 0.342 | 0.682 | -0.498
42 | CCCAAUGUUGUUAAACCACACGAAAAGGG [IAV_invivo_PA_3_Motif_15+IAV_invivo_PA_3_Motif_15] | 0.104 | 0.504 | 0.621 | -0.323
43 | UACUGGUUCUAUACCUUGUA [SARS-CoV-2-Conserved-Structured-4_Interval-7011-7130_Motif_3] | -0.095 | -0.0242 | 0.217 | -0.722
44 | CUUACUGACAAUGUAUACAUUAAAAAUGCAGACAUUGUGGAAG [DMSMaPseq_invitro_SARS-CoV-2_Motif_59] | -0.18 | -0.328 | -0.453 | -0.455

Row | Sequence | pull-down binding Z-score [1] | pull-down binding Z-score (TO-N3 (biotin conjugate)) | pull-down binding Z-score [2] | pull-down binding Z-score [3]
45 | GUUCUAAGUAUUGCUCCAAUAAUGUUCUCAAACAAAAUGGCGAGACUGGGAAAAGGGUAUAUGUUUGAGAGCAAGAGUAUGAAACUUAGAAC [IAV_invivo_PB1_2_Motif_18+IAV_invivo_PB1_2_Motif_18] | 0.578 | 1.12 | 0.629 | 1.25
46 | CAAGAGAAGUGGGUUUUGUCGUGCCUGGUUUGCCUGGCACGAUAUUACGCACAACUAAUG | -0.209 | -0.438 | -0.455 | -0.297
47 | GUCGCUACAGGAUUGGCAACUAUAAAUUAAACACAGACCAUUCCAGUAGCAGUGAC [SHAPE_invitro_SARS-CoV-2_Motif_494] | 0.215 | 0.0101 | 0.00722 | -0.283
48 | UAUAACAAUACUAGAUGGAAUUUCACAGUAUUCACUGAGACUCAUUGAUGCUAUGAUGUUCACAUCUGAUUUGGCUACUAACAAUCUAGUUGUA | -0.178 | -0.688 | -0.682 | -1.1
49 | GACUCAUUCAAGGAGGAGUU [SHAPE_invivo_SARS-CoV-2_Motif_469] | -0.149 | 0.111 | 0.25 | -0.297
50 | CCUUUAGUACCUUUCUGGAUAACAAUUGCUUAUAUCAUUUGUAUUUCCACAAAGCAUUUCUAUUGG | -0.843 | -1.06 | -0.884 | -0.78
51 | GGGUAGGGUUUGGGGGAGAGUGUGGGCUGGGGUUCAGGGACA [pre-miRNA-1229_SNP_FL] | 7.5 | 6.27 | 6.68 | 4.79
52 | GCGCCGCCAGAAACUGGCUGCGC [mismatch-CU] | -0.0148 | 0.00381 | 0.308 | -0.671
53 | GCGCUGCCAGAAACUGGCUGCGC [mismatch-UU] | -0.405 | -0.231 | 0.141 | -0.689
54 | GAAGUCACACCUUC [SHAPE_invitro_SARS-CoV-2_Motif_534] | -0.725 | -0.137 | 0.0219 | -0.517
55 | UCCUUACAUGGA | -0.672 | -0.321 | -0.557 | -1.16
56 | CAACUGAAAUCUAUCAGGCCGGUAGCACACCUUGUAAUGGUGUUGAAGGUUUUAAUUG [SHAPE_invivo_SARS-CoV-2_Motif_433] | -0.292 | -0.566 | -0.552 | 0.0571
57 | GGAAUGGAUCCC [IAV_invivo_NP_5_Motif_9+IAV_invivo_NP_5_Motif_9] | -0.0967 | -0.323 | -0.119 | -0.367
58 | GGUGUGGAUGGCAUGCC [IAV_invivo_NP_5_Motif_17+IAV_invivo_NP_5_Motif_17] | -0.0718 | -0.121 | -0.0853 | 0.0568
59 | GGUGUUUUAACUGCUGUGGUUAUACCUACUAAAAAGGCUGGUGGCACUACUGAAAUGCU | -0.12 | -0.521 | -0.83 | -0.153
60 | UCUCUCUCAUUUUGUUAACUUAGACAACCUGAGAGCUAAUAACACUAAAGGUUCAUUGCCUAUUAAUGUUAUAGUUUUUGAUGGUAAAUCAAAAUGUGAAGA [DMSMaPseq_invitro_SARS-CoV-2_Motif_146] | -0.388 | -0.723 | -0.765 | -0.699
61 | CCUAAAGUGAAGUAUUUAUACUUUAUUAAAGG [DMSMaPseq_invitro_SARS-CoV-2_Motif_232] | -0.181 | 0.411 | 0.463 | -0.916
62 | GGUAAUUAUACAGUUUCCUGUUUACC [DMSMaPseq_invitro_SARS-CoV-2_Motif_504] | -0.713 | -1.05 | -0.536 | -0.867
63 | AUAGAUUAUGUACCACUAAAGUCUGCUACGUGUAUAACACGUUGCAAUUUAGGUGGUGCUGUCUGU | -0.399 | -1.01 | -0.766 | -0.77
64 | GUAGACAAUUCUAGUCUUAC [SHAPE_invitro_SARS-CoV-2_Motif_131] | -0.243 | 0.441 | 0.702 | -0.316
65 | GGGAAUAUAAUCUC [IAV_invivo_NA_6_Motif_2+IAV_invivo_NA_6_Motif_2] | 0.038 | 1.33 | 1.52 | -0.715
